Results published in paper PMC12416549 (2024).
Changes are numbered by the printed parent chain. In names and notes the source's numbering stands.

T1: TNFR1 (Homo sapiens, UniProt P19438)
T1 chain: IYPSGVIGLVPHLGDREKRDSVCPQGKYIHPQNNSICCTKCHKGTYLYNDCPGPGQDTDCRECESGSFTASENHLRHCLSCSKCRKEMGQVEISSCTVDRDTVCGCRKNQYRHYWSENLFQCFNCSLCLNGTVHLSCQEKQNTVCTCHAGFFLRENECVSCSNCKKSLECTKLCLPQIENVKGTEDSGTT

B1: A106W (designed binder)
chain: SMEEEVEKAAKEYEKKKKEAIEKHLEKLKAKDKEAAERFLKELEEAAKEYAKDEAKTMSEEEAKRRAKKYKEKVLLSELSEEEQKEIKEAEEKLVRTILKYVEEAWK
B2: E19R (designed binder)
chain: B1 chain with E19R, W106A
B3: V95I (designed binder)
chain: B1 chain with V95I, W106A
B4: E12C (designed binder)
chain: B1 chain with E12C, W106A
B5: R38F (designed binder)
chain: B1 chain with R38F, W106A
B6: L28P (designed binder)
chain: B1 chain with L28P, W106A
B7: E91K (designed binder)
chain: B1 chain with E91K, W106A
B8: Q84N (designed binder)
chain: B1 chain with Q84N, W106A
B9: S77C (designed binder)
chain: B1 chain with S77C, W106A
B10: K107E (designed binder)
chain: B1 chain with W106A, K107E
B11: L25F (designed binder)
chain: B1 chain with L25F, W106A
B12: R66T (designed binder)
chain: B1 chain with R66T, W106A
B13: A105M (designed binder)
chain: B1 chain with A105M, W106A
B14: A30W (designed binder)
chain: B1 chain with A30W, W106A
B15: E49D (designed binder)
chain: B1 chain with E49D, W106A
B16: A30I (designed binder)
chain: B1 chain with A30I, W106A
B17: S59D (designed binder)
chain: B1 chain with S59D, W106A
B18: E83H (designed binder)
chain: B1 chain with E83H, W106A
B19: D32M (designed binder)
chain: B1 chain with D32M, W106A
B20: K68F (designed binder)
chain: B1 chain with K68F, W106A
B21: E89R (designed binder)
chain: B1 chain with E89R, W106A
B22: Y50S (designed binder)
chain: B1 chain with Y50S, W106A
B23: S80T (designed binder)
chain: B1 chain with S80T, W106A
B24: K23Y (designed binder)
chain: B1 chain with K23Y, W106A
B25: L94R (designed binder)
chain: B1 chain with L94R, W106A
B26: S1C (designed binder)
chain: B1 chain with S1C, W106A
B27: E78Q (designed binder)
chain: B1 chain with E78Q, W106A
B28: K18S (designed binder)
chain: B1 chain with K18S, W106A
B29: S1Y (designed binder)
chain: B1 chain with S1Y, W106A
B30: K100W (designed binder)
chain: B1 chain with K100W, W106A
B31: A63K (designed binder)
chain: B1 chain with A63K, W106A
B32: R66H (designed binder)
chain: B1 chain with R66H, W106A
B33: L79Y (designed binder)
chain: B1 chain with L79Y, W106A
B34: E92T (designed binder)
chain: B1 chain with E92T, W106A
B35: L79K (designed binder)
chain: B1 chain with L79K, W106A
B36: K107A (designed binder)
chain: B1 chain with W106A, K107A
B37: E22I (designed binder)
chain: B1 chain with E22I, W106A
B38: I87G (designed binder)
chain: B1 chain with I87G, W106A
B39: A9Y (designed binder)
chain: B1 chain with A9Y, W106A
B40: L43N (designed binder)
chain: B1 chain with L43N, W106A
B41: A55D (designed binder)
chain: B1 chain with A55D, W106A
B42: E12M (designed binder)
chain: B1 chain with E12M, W106A
B43: K16M (designed binder)
chain: B1 chain with K16M, W106A
B44: K48Y (designed binder)
chain: B1 chain with K48Y, W106A
B45: E78M (designed binder)
chain: B1 chain with E78M, W106A
B46: R38W (designed binder)
chain: B1 chain with R38W, W106A
B47: Y50M (designed binder)
chain: B1 chain with Y50M, W106A
B48: R96M (designed binder)
chain: B1 chain with R96M, W106A
B49: M2G (designed binder)
chain: B1 chain with M2G, W106A
B50: E42L (designed binder)
chain: B1 chain with E42L, W106A
B51: E3N (designed binder)
chain: B1 chain with E3N, W106A
B52: A67M (designed binder)
chain: B1 chain with A67M, W106A
B53: A10S (designed binder)
chain: B1 chain with A10S, W106A
B54: E54C (designed binder)
chain: B1 chain with E54C, W106A
B55: A55L (designed binder)
chain: B1 chain with A55L, W106A
B56: V6Y (designed binder)
chain: B1 chain with V6Y, W106A
B57: E5W (designed binder)
chain: B1 chain with E5W, W106A
B58: D53P (designed binder)
chain: B1 chain with D53P, W106A
B59: S59R (designed binder)
chain: B1 chain with S59R, W106A

Target: T1, TNFR1
Assay: yeast display SC50

| Binder | apparent Kd (screen) [nM] |
| --- | --- |
| B1 | 0.368 |
| B2 | 0.446 |
| B3 | 1.69 |
| B4 | 0.956 |
| B5 | 1.05 |
| B6 | 13.8 |
| B7 | 11.4 |
| B8 | 2.48 |
| B9 | 1.54 |
| B10 | 1.54 |
| B11 | 0.49 |
| B12 | 16.7 |
| B13 | 3 |
| B14 | 0.593 |
| B15 | 4.39 |
| B16 | 0.653 |
| B17 | 2.25 |
| B18 | 1.27 |
| B19 | 5.84 |
| B20 | 3 |

| Binder | apparent Kd (screen) [nM] |
| --- | --- |
| B21 | 2.73 |
| B22 | 5.31 |
| B23 | 1.27 |
| B24 | 0.368 |
| B25 | 4.83 |
| B26 | 15.2 |
| B27 | 0.718 |
| B28 | 0.446 |
| B29 | 3 |
| B30 | 1.05 |
| B31 | 8.56 |
| B32 | 24.4 |
| B33 | 12.5 |
| B34 | 3.3 |
| B35 | 0.304 |
| B36 | 1.54 |
| B37 | 1.16 |
| B38 | 13.8 |
| B39 | 0.718 |
| B40 | 0.446 |

| Binder | apparent Kd (screen) [nM] |
| --- | --- |
| B41 | 12.5 |
| B42 | 0.539 |
| B43 | 0.446 |
| B44 | 0.653 |
| B45 | 0.956 |
| B46 | 0.446 |
| B47 | 0.446 |
| B48 | 1.05 |
| B49 | 0.446 |
| B50 | 7.07 |
| B51 | 2.73 |
| B52 | 7.78 |
| B53 | 0.446 |
| B54 | 11.4 |
| B55 | 0.593 |
| B56 | 0.446 |
| B57 | 0.539 |
| B58 | 0.869 |
| B59 | 1.05 |
